# In patent publication US20120045438A1 (Janssen / Centocor, published 2012):
# Substitutions are numbered along the chain they refer to.
# B1: Fab clone 2C06 (IL-13-62 library) (Fab, V domains shown)
# VH: QVTLKESGPVLVKPTETLTLTCTVSGFSLSTYGMGVGWIRQPPGKALEWLAHIWWDDVKRYNPALKSRLTISKDTSKSQVVLTMTNMDPVDTATYYCARMGSDYDVWFDYWGQGTLVTVSS
# VL: EIVLTQSPATLSLSPGERATLSCRASKSISKYLAWYQQKPGQAPRLLIYSGSTQQSGIPARFSGSGSGTDFTLTISSLEPEDFAVYYCQQHDYPYTFGQGTKLEIK
# notes: Fab on phage pIX; del = residue deleted
# B2: Fab clone 2B07 (IL-13-62 library) (Fab, V domains shown)
# VH: B1 VH
# VL: EIVLTQSPATLSLSPGERATLSCRASKSISKYLAWYQQKPGQAPRLLIYSGSTLQSGIPARFSGSGSGTDFTLTISSLEPEDFAVYYCQQHDWGPYTFGQGTKLEIK
# notes: Fab on phage pIX
# B3: Fab clone 1H06 (IL-13-62 library) (Fab, V domains shown)
# VH: B1 VH
# VL: B2 VL with G94A
# notes: Fab on phage pIX
# B4: Fab clone 1H02 (IL-13-62 library) (Fab, V domains shown)
# VH: B1 VH
# VL: B2 VL with D92L, W93L
# notes: Fab on phage pIX
# B5: mAb with Lc 5G02 (Lc6 variant) and Hc2 (antibody, V domains shown)
# VH: B1 VH
# VL: B2 VL with S56G, D92L, W93D, G94S
# notes: human IgG1
# B6: Fab clone 1F11 (IL-13-62 library) (Fab, V domains shown)
# VH: B1 VH
# VL: B2 VL with D92S, W93V
# notes: Fab on phage pIX
# B7: Fab clone 1C06 (IL-13-62 library) (Fab, V domains shown)
# VH: B1 VH
# VL: B2 VL with D92S
# notes: Fab on phage pIX
# B8: Fab clone 1A02 (IL-13-62 library) (Fab, V domains shown)
# VH: B1 VH
# VL: B2 VL with D92S, G94A
# notes: Fab on phage pIX
# B9: mAb with Lc 3A05 (Lc6 variant) and Hc2 (antibody, V domains shown)
# VH: B1 VH
# VL: B2 VL with W93N, G94S
# notes: human IgG1
# B10: mAb with Lc 3E05 (Lc6 variant) and Hc2 (antibody, V domains shown)
# VH: B1 VH
# VL: B2 VL with H91P, D92L, W93D, G94T
# notes: human IgG1
# B11: Fab clone without printed name, L-CDR3 Q D G del (IL-13-62 library) (Fab, V domains shown)
# VH: B1 VH
# VL: B1 VL with Q54L, H91Q, Y93G
# notes: as for B1
# B12: Fab clone 1F04 (IL-13-62 library) (Fab, V domains shown)
# VH: B1 VH
# VL: B2 VL with D92S, W93S
# notes: Fab on phage pIX
# B13: mAb with Lc 3G02 (Lc6 variant) and Hc2 (antibody, V domains shown)
# VH: B1 VH
# VL: B2 VL with D92L, W93N
# notes: human IgG1
# B14: Fab clone 1A06 (IL-13-62 library) (Fab, V domains shown)
# VH: B1 VH
# VL: B2 VL with D92E
# notes: Fab on phage pIX
# B15: mAb with Lc 2H01 (Lc6 variant) and Hc2 (antibody, V domains shown)
# VH: B1 VH
# VL: B2 VL with G94E
# notes: human IgG1
# B16: mAb with Lc 5H04 (Lc6 variant) and Hc2 (antibody, V domains shown)
# VH: B1 VH
# VL: B2 VL with W93Y, G94A
# notes: human IgG1
# B17: mAb with Lc 2H08 (Lc6 variant) and Hc2 (antibody, V domains shown)
# VH: B1 VH
# VL: B2 VL with D92L, W93D, G94S
# notes: human IgG1
# B18: mAb with Lc 3B06 (Lc6 variant) and Hc2 (antibody, V domains shown)
# VH: B1 VH
# VL: B2 VL with D92L, W93M
# notes: human IgG1
# B19: mAb with Lc 3A04 (Lc6 variant) and Hc2 (antibody, V domains shown)
# VH: B1 VH
# VL: B2 VL with H91P, D92L, W93D, G94S
# notes: human IgG1
# B20: mAb with Lc 5D03 (Lc6 variant) and Hc2 (antibody, V domains shown)
# VH: B1 VH
# VL: B2 VL with D92S, W93Y
# notes: human IgG1
# B21: mAb with Lc 3E03 (Lc6 variant) and Hc2 (antibody, V domains shown)
# VH: B1 VH
# VL: B2 VL with D92N, W93H
# notes: human IgG1
# B22: mAb with Lc 5A02 (Lc6 variant) and Hc2 (antibody, V domains shown)
# VH: B1 VH
# VL: B2 VL with H91Q, W93Y
# notes: human IgG1
# B23: mAb with Lc 5B03 (Lc6 variant) and Hc2 (antibody, V domains shown)
# VH: B1 VH
# VL: B2 VL with Q38R, D92N, W93E, G94A
# notes: human IgG1
# B24: Fab clone 1H05 (IL-13-62 library) (Fab, V domains shown)
# VH: B1 VH
# VL: B2 VL with H91Q, W93Y
# notes: Fab on phage pIX
# B25: Fab clone 1D08 (IL-13-62 library) (Fab, V domains shown)
# VH: B1 VH
# VL: B2 VL with G94E
# notes: Fab on phage pIX
# B26: mAb with Lc 3G01 (Lc6 variant) and Hc2 (antibody, V domains shown)
# VH: B1 VH
# VL: B2 VL with H91P, D92L, W93D, G94V
# notes: human IgG1
# B27: Fab clone 1F05 (IL-13-62 library) (Fab, V domains shown)
# VH: B1 VH
# VL: B2 VL with D92V, W93G
# notes: Fab on phage pIX
# B28: Fab clone 1D02 (IL-13-62 library) (Fab, V domains shown)
# VH: B1 VH
# VL: B2 VL with S76G, G94S
# notes: Fab on phage pIX
# B29: Fab clone 1A07 (IL-13-62 library) (Fab, V domains shown)
# VH: B1 VH
# VL: B2 VL with W93N, G94S
# notes: Fab on phage pIX
# B30: Fab clone 1A05 (IL-13-62 library) (Fab, V domains shown)
# VH: B1 VH
# VL: B2 VL with W93Y, G94A
# notes: Fab on phage pIX
# B31: Fab clone 1D01 (IL-13-62 library) (Fab, V domains shown)
# VH: B1 VH
# VL: B2 VL with D92S, W93Y
# notes: Fab on phage pIX
# B32: mAb with Lc 2H09 (Lc6 variant) and Hc2 (antibody, V domains shown)
# VH: B1 VH
# VL: B2 VL with H91P, D92I, W93D, G94A
# notes: human IgG1
# B33: Fab clone 2D04 (IL-13-62 library) (Fab, V domains shown)
# VH: B1 VH
# VL: B1 VL with Q54L, H91Q, Y93S
# notes: as for B1
# B34: Fab clone 1B05 (IL-13-62 library) (Fab, V domains shown)
# VH: B1 VH
# VL: B2 VL with W93R, G94D
# notes: Fab on phage pIX
# B35: Fab clone 1G05 (IL-13-62 library) (Fab, V domains shown)
# VH: B1 VH
# VL: B2 VL with H91Q, W93I
# notes: Fab on phage pIX
# B36: Fab clone 1F12 (IL-13-62 library) (Fab, V domains shown)
# VH: B1 VH
# VL: B2 VL with D92N, W93H
# notes: Fab on phage pIX
# B37: mAb with Lc 3D01 (Lc6 variant) and Hc2 (antibody, V domains shown)
# VH: B1 VH
# VL: B2 VL with D92V, W93G
# notes: human IgG1
# B38: mAb with Lc 3C06 (Lc6 variant) and Hc2 (antibody, V domains shown)
# VH: B1 VH
# VL: B2 VL with D92S, W93V
# notes: human IgG1
# B39: Fab clone 1C09 (IL-13-62 library) (Fab, V domains shown)
# VH: B1 VH
# VL: B2 VL with Q38R, D92N, W93E, G94A
# notes: Fab on phage pIX
# B40: mAb with Lc 3A09 (Lc6 variant) and Hc2 (antibody, V domains shown)
# VH: B1 VH
# VL: B2 VL with W93L
# notes: human IgG1
# B41: Fab clone 1C07 (IL-13-62 library) (Fab, V domains shown)
# VH: B1 VH
# VL: B2 VL with D92E, W93S
# notes: Fab on phage pIX
# Key:
# [1] = molecular target: T1, human IL-13 R130Q variant (R110Q of the mature chain) (human, UniProt P35225 35-146, Biotinylated on amines (NHS-LC-biotin, 4:1) in ELISA, panning and competition assays. The letters are unchanged.); assay: single-point (10 nM) phage Fab ELISA on biotinylated IL-13 R130Q
# T1 construct: R130Q counts from Met 1 of the signal peptide, R110Q on the mature chain; Bought from Peprotech; also called IL-13 R110Q; b-R130Q
# [2] = molecular target: T1, human IL-13 R130Q variant (R110Q of the …); assay: Ra2 binding inhibition ELISA, mAb in crude HEK293 supernatant, IL-13 binding to IL-13Ra2
Binder,Signal (% of Lc16Hc7) [1] [%],% Ra2 Binding Inhibition [2] [%]
B1,128,–
B2,144,–
B3,139,–
B4,148,–
B5,–,66.2
B6,108,–
B7,172,–
B8,120,–
B9,–,55.5
B10,–,70.8
B11,184,–
B12,108,–
B13,–,66.9
B14,122,–
B15,–,80
B16,–,66.1
B17,–,62.3
B18,–,74.3
B19,–,67
B20,–,72.8
B21,–,70.9

Binder,Signal (% of Lc16Hc7) [1] [%],% Ra2 Binding Inhibition [2] [%]
B22,–,78.4
B23,–,63
B24,172,–
B25,116,–
B26,–,68.4
B27,144,–
B28,117,–
B29,120,–
B30,136,–
B31,144,–
B32,–,62.5
B33,100,–
B34,108,–
B35,144,–
B36,100,–
B37,–,58.5
B38,–,62.1
B39,152,–
B40,–,76.5
B41,136,–
